Experimental data reported in the RNAGym collection of RNA variant scans (doi:10.7554/elife.90254).

B1: LINE1-full (parent)
chain: UACGUAGGUGGUUUUCCCCUGAUAGUGCUAAGGGGGCCUGGAAGUUUGGACUGGGCAGAGCUCAACACAGCGUGGCAAAGUGGCUGUGGCUAGACUGCCUCUCUGGAUUCCUCGUCACUCAGCAGGGCAUCUCUGAGAGAAAUGCC

Variants of: B1
Experiment: self-cleavage, relative activity (ratio to wild type); higher = more cleavage; in vitro, sequencing; the parent is a self-cleaving ribozyme

Row | Variant | self-cleavage
1 | UACGUAGGUGGUUUUCCCCUGAUAGUGCUAAGGGGGCCUGGAAGUUUGGACUGGGCAGAGCUUAACACAGCGUGGCAAAGUGGCUGUGGCCAGACUGCCUCUCUGGAUUCCUCGUCACUCAGCAGGGCAUCUCUGAGAGAAAUGCC [C63U U91C] | 0.18
2 | UACGUAGGUGGUUUUCCCCUGAUAGUGCUAAGGGGGCCUGGAAGUUUGGACUGGGCGGAGCUCAACACAGCGCGGCAAAGUGGCUGUGGCUAGACUGCCUCUCUGGAUUCCUCGUCACUCAGCAGGGCAUCUCUGAGAGAAAUGCC [A57G U73C] | 1.17
3 | UACGUAGGUGGUUUUCCCCUGAUAGUGCUAAGGGGGCCUGGAAGUUUGGACUGGGCAGAGCUCAACACAGCGUGGCAAAGUGGCUGUGGCUAGACUGCCUCUCUGGAUUCCUCGUCACUCAGCAGGGCAUCGCUGAGAGAGAUGCC [U132G A141G] | 1.22
4 | UACGUAGGUGGUUUUCCCCUGAUAGUGCUAAGGGGGCCUGGAAGUUUGGACUGGGCAGAGCUCAACACACCGUGGCAAAGUGGCUGUGGCUAGACUGCCUCUCUGGACUCCUCGUCACUCAGCAGGGCAUCUCUGAGAGAAAUGCC [G70C U108C] | 0.29
5 | UACGUAGGUGGUUUUCCCCUGAUAGUGCUAAGGGGGCCUGGAAGUUUGGACUGGGCAGAGCUCAACACAGCGUGGCAAAGCGGCUGUGGCAAGACUGCCUCUCUGGAUUCCUCGUCACUCAGCAGGGCAUCUCUGAGAGAAAUGCC [U81C U91A] | 0.56
6 | UACGUAGGUGGUUUCCCCCUGAUAGUGCUAAGGGGGCCUGGAAGUUUGGACUGGGCAGAGCUCAACACAGCGUGGCAAAGUGGCUGUGGCUAGACUGCCUCUCUGGAUUCCUCGUCACUCUGCAGGGCAUCUCUGAGAGAAAUGCC [U15C A121U] | 1.79
7 | UACGUAGGUGGUUUUCCCCUGAUAGUGCUAAGGGGGCCUGGAAGUUUGGACUGGGCAGAGCUCAACACAGCGUGGCAUAGUGGCUGUGGCUAGACUGCCUCUCUGGAUUCCUCGUCACUCAGCUGGGCAUCUCUGAGAGAAAUGCC [A78U A124U] | 2.15
8 | UACGUAGGUGGUUUUCCCCUGAUAGUGCUAAGGGGGCCUGGAAGUUUGGACUGGGCAGAGCUCAACACAGCGUGGCAAAGUGGCUGUGGCUAGCCUGCCUCUCUGGAUUCCUCGUCACUCAGCAGCGCAUCUCUGAGAGAAAUGCC [A94C G126C] | 0.23
9 | UACGUAGGUGGUUUUCCCCUGAUAGUGCUAAGGGGGCCUGGAAGUUUGGACUGGGCAGAGCCCAACACAGCGUGGCAAAGUGGCGGUGGCUAGACUGCCUCUCUGGAUUCCUCGUCACUCAGCAGGGCAUCUCUGAGAGAAAUGCC [U62C U85G] | 0
10 | UACGUAGGUGGUUGUCCCCUGAUAGUGCCAAGGGGGCCUGGAAGUUUGGACUGGGCAGAGCUCAACACAGCGUGGCAAAGUGGCUGUGGCUAGACUGCCUCUCUGGAUUCCUCGUCACUCAGCAGGGCAUCUCUGAGAGAAAUGCC [U14G U29C] | 1.6
11 | UACGUAGGUGGUUUUCCCCUGAUAGUGCUAAGGGGGCCUGGAAGUUUGGACCGGGCAGAGCUCAACACAGCGUGGCAAAGUGGUUGUGGCUAGACUGCCUCUCUGGAUUCCUCGUCACUCAGCAGGGCAUCUCUGAGAGAAAUGCC [U52C C84U] | 0.15
12 | UACGUAGGUGGUUUUCCCCAGAUAGUGCUAAGGGGGCCUGGAAGUUUGGACUGGGCAGAGCUCAACACAGCGUGGCAAAGUGGCUGUGGCUAGACUGCCUCUCUGGAUUCCUCGUCACUCAGCAGGGCAUCUCUGAGAGAAAUGUC [U20A C145U] | 1.13
13 | UACGUAGGUGGUUUUCCCCUGAUAGUGCUAAGGGGGCCUGGAAGUUUGGACUGGGCCGAGCUCAACACAGCGUGGCAAAGUGGCUGUGGCCAGACUGCCUCUCUGGAUUCCUCGUCACUCAGCAGGGCAUCUCUGAGAGAAAUGCC [A57C U91C] | 0
14 | UACGUAGGUGGUUUUCCCCCGAUAGUGCUAAGGGGGCCUGGAAGUUUGGACUGGGCAGAGCUCAACACAGCGUGGCAAAGUGGCUGUGGCUAGACUGCCUCUCCGGAUUCCUCGUCACUCAGCAGGGCAUCUCUGAGAGAAAUGCC [U20C U104C] | 1.51
15 | AACGUAGGUGGGUUUCCCCUGAUAGUGCUAAGGGGGCCUGGAAGUUUGGACUGGGCAGAGCUCAACACAGCGUGGCAAAGUGGCUGUGGCUAGACUGCCUCUCUGGAUUCCUCGUCACUCAGCAGGGCAUCUCUGAGAGAAAUGCC [U1A U12G] | 0.97
16 | UACGUAGGUGGUUUACCCCUGAUAGUGAUAAGGGGGCCUGGAAGUUUGGACUGGGCAGAGCUCAACACAGCGUGGCAAAGUGGCUGUGGCUAGACUGCCUCUCUGGAUUCCUCGUCACUCAGCAGGGCAUCUCUGAGAGAAAUGCC [U15A C28A] | 1.16
17 | UACGCAGGUGGUUUUCCCCUGAUAGUGCUCAGGGGGCCUGGAAGUUUGGACUGGGCAGAGCUCAACACAGCGUGGCAAAGUGGCUGUGGCUAGACUGCCUCUCUGGAUUCCUCGUCACUCAGCAGGGCAUCUCUGAGAGAAAUGCC [U5C A30C] | 0.28
18 | UACGUAGGUGGUUUUCUCCUGAUAGUGCUAAGGGGGCCUGGAAGUUUGGACUGGGCAGAGCCCAACACAGCGUGGCAAAGUGGCUGUGGCUAGACUGCCUCUCUGGAUUCCUCGUCACUCAGCAGGGCAUCUCUGAGAGAAAUGCC [C17U U62C] | 0.04
19 | UACGUAGGUGGUUUUCCCCUGAUAGUGCUAAUGGGGCCUGGAAGUUUGGACUGGGCAGAGCUCAACACAGCGUGGCAAAGUGGCUGUGGCUAGACUGCCUCUCUGGAUUCCUCGUCACUCAGCAGGGCAUCUCUGAGAGAAAUGCC [G32U] | 0.98
20 | UACGUAGGUGGUUUUCCCCUGUUAGUGCUAAGGGGGCCUGGAAGUUUGGACUGGACAGAGCUCAACACAGCGUGGCAAAGUGGCUGUGGCUAGACUGCCUCUCUGGAUUCCUCGUCACUCAGCAGGGCAUCUCUGAGAGAAAUGCC [A22U G55A] | 0.37
